Experimental data from patent US20240238459A1, “Granzyme-Activatable Membrane-Interacting Peptides and Methods of Use” (priority 2021, published 2024).
Ends that are not written are not given here.

How the values were obtained:
[1] = target: T1, granzyme B (Homo sapiens, UniProt P10144); test: Protease specificity of substrate sequence (FIG. 1F); format: biochemical; set-up: purchased; settings: vs thrombin, caspase 3, caspase 8, granzyme K, MMP9, C1S; enzymes 5 nM, substrate 60 μM, 37° C., PBS, 1 mM DTT, pH 7.4
T1 sequence (P10144 21-247): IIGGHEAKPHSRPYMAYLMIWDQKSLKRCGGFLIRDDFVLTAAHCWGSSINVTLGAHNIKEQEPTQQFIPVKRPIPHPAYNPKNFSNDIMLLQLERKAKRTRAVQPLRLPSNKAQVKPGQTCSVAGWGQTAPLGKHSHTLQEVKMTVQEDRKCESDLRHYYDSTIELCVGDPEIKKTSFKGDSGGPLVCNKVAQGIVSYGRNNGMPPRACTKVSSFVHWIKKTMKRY
Protocol: The substrate sequence FVQWFSKFLGK (SEQ ID NO:3) was assessed for specificity for granzyme B compared to thrombin, caspase 3, caspase 8, granzyme K, MMP9, and C1S at 5 nM concentrations with substrate at 60 μM, 37° C., and buffer of PBS, 1 mM DTT, and pH 7.4.

[2] = test system: human erythrocytes; test: Toxicity assay measuring hemolysis of human erythrocytes; settings: in vitro, 1 hr at 37° C., hemoglobin release OD 540 nm
Protocol: Blood from healthy anonymous donors was harvested from Trima Leukoreduction chambers (Vitalant, San Francisco CA). Erythrocytes were isolated from the anonymous blood samples. Full-length GRIP B and activated GRIP B were measured for their hemolytic activity on healthy human erythrocytes in triplicate. Aliquots of human erythrocytes were suspended in PBS (pH 7.4) and incubated with serial dilutions of both peptides which were initially solubilized in DMSO. DMSO and 1% Triton X-100 were incubated in parallel as negative and positive controls, respectively. Incubation was for 1 hr at 37° C. After incubation, the samples were centrifuged for 5 min at 2,000×g upon which the supernatant was collected. Supernatant was measured for the release of hemoglobin by the erythrocytes using a BioTek H4 multimode plate reader, monitoring the optical density of the supernatant at a wavelength of 540 nm.

[3] = target: T1, granzyme B; test: In vitro kinetics of quenched fluorogenic peptide proteolysis by GZMB; format: biochemical; settings: Michaelis-Menten kinetics (FIG. 1D)

FVQWFSKFLGK
specificity for granzyme B compared to other proteases [1]: highly specific for granzyme B

FVQWFSKFLGKIEPDVSQVQDPNDQYEPF [GRIP B]
toxicity toward human red blood cells [2]: not to display toxicity

IEPDVSQV (ends and bridges not checked) [NH2-K(MCA)IEPDVSQVK(DNP)-COOH]
improved catalytic turnover compared to IEPD alone [3]: approximately 2 fold
